B1: BB0238 (purified recombinant, wild type) (natural protein)
chain: QGSSSYIDKQKELAIFYYEVGQRYINVGKIKKGKLFQAKALKIYPDLKKGFDIKLAVKELDARIKDDNPKVVMLEDIKLEEIPGIVHEKIEINDFTNAPKIEYIAQRERSKNQDKIIKFQFGKFARALISRNFDLFDSVIADKVNVMGQFESKNDFISTLSSASSKADADELEYLSVDDYYDLKSLKISKSNDTSFAVNVNAKKNDVTKNFPFWKERQTLIFTTEDDNNWFLSSIN
notes: BB0238 of Borrelia burgdorferi; monomer-dimer mixture in solution; also called BB0238 WT; intact BB0238
B2: BB0323 (residues 22–242) (domain or fragment)
chain: KTPPESRESKNAKIAQPDNKNFQLRDIKDIKNELIRERGHLFYSKEFNEAERLEEAMKQSFSKKKAIEGNEIALKVLERYKTIIRETREKKEKTNYLKENIEKYLNDAEANEAYIWIPLEIDEVNNLYFEATRKYKNYDLDNALDMYSKAFNRAQQAAKNAKEAKALKETDERMYKQLKALEAASNLPIYSNNKLIKPSPWNGRAFIKERNSHLNLLNTNK
notes: BB0323 of Borrelia burgdorferi, residues 22-242; also called BB0323 N2; BB0323^22-242

Experiments:
BB0323 (residues 22–242) = molecular target: B2; experiment: SEC; analytical SEC of ~1:1 mixtures: 10 uM BB0238-BB0323 on Superdex 200; ~9 uM BB0238^∆IM with 8 uM BB0323 22-242 on Superdex 75; 50 mM Tris-HCl pH 8.0, 0.15 M NaCl, 0.5 mM EDTA, 4 °C; details: both partners purified
[1] = molecular target: the molecule itself; experiment: SEC; analytical SEC of single proteins on Superdex 75 (10/300), 50 mM Tris-HCl pH 8.0, 0.15 M NaCl, 0.5 mM EDTA, 4 °C; BB0238 9-44 uM, BB0238^∆IM 10-40 uM, BB0323 (22-242) 8 uM; monomer-dimer

Row | Binder | stoichiometry N (BB0323 (residues 22–242)) | stoichiometry N [1]
1 | B1 | 1 | 2
2 | B2 |  | 2

Source: paper PMC5462797, “A protein-protein interaction dictates Borrelial infectivity” (Scientific Reports, 2017)
